According to IntAct's records for PubMed 34606829:

B1: ALK tyrosine kinase receptor (Homo sapiens), Q9UM73 (parent)
chain: MGAIGLLWLLPLLLSTAAVGSGMGTGQRAGSPAAGPPLQPREPLSYSRLQRKSLAVDFVVPSLFRVYARDLLLPPSSSELKAGRPEARGSLALDCAPLLRLLGPAPGVSWTAGSPAPAEARTLSRVLKGGSVRKLRRAKQLVLELGEEAILEGCVGPPGEAAVGLLQFNLSELFSWWIRQGEGRLRIRLMPEKKASEVGREGRLSAAIRASQPRLLFQIFGTGHSSLESPTNMPSPSPDYFTWNLTWIMKDSFPFLSHRSRYGLECSFDFPCELEYSPPLHDLRNQSWSWRRIPSEEASQMDLLDGPGAERSKEMPRGSFLLLNTSADSKHTILSPWMRSSSEHCTLAVSVHRHLQPSGRYIAQLLPHNEAAREILLMPTPGKHGWTVLQGRIGRPDNPFRVALEYISSGNRSLSAVDFFALKNCSEGTSPGSKMALQSSFTCWNGTVLQLGQACDFHQDCAQGEDESQMCRKLPVGFYCNFEDGFCGWTQGTLSPHTPQWQVRTLKDARFQDHQDHALLLSTTDVPASESATVTSATFPAPIKSSPCELRMSWLIRGVLRGNVSLVLVENKTGKEQGRMVWHVAAYEGLSLWQWMVLPLLDVSDRFWLQMVAWWGQGSRAIVAFDNISISLDCYLTISGEDKILQNTAPKSRNLFERNPNKELKPGENSPRQTPIFDPTVHWLFTTCGASGPHGPTQAQCNNAYQNSNLSVEVGSEGPLKGIQIWKVPATDTYSISGYGAAGGKGGKNTMMRSHGVSVLGIFNLEKDDMLYILVGQQGEDACPSTNQLIQKVCIGENNVIEEEIRVNRSVHEWAGGGGGGGGATYVFKMKDGVPVPLIIAAGGGGRAYGAKTDTFHPERLENNSSVLGLNGNSGAAGGGGGWNDNTSLLWAGKSLQEGATGGHSCPQAMKKWGWETRGGFGGGGGGCSSGGGGGGYIGGNAASNNDPEMDGEDGVSFISPLGILYTPALKVMEGHGEVNIKHYLNCSHCEVDECHMDPESHKVICFCDHGTVLAEDGVSCIVSPTPEPHLPLSLILSVVTSALVAALVLAFSGIMIVYRRKHQELQAMQMELQSPEYKLSKLRTSTIMTDYNPNYCFAGKTSSISDLKEVPRKNITLIRGLGHGAFGEVYEGQVSGMPNDPSPLQVAVKTLPEVCSEQDELDFLMEALIISKFNHQNIVRCIGVSLQSLPRFILLELMAGGDLKSFLRETRPRPSQPSSLAMLDLLHVARDIACGCQYLEENHFIHRDIAARNCLLTCPGPGRVAKIGDFGMARDIYRASYYRKGGCAMLPVKWMPPEAFMEGIFTSKTDTWSFGVLLWEIFSLGYMPYPSKSNQEVLEFVTSGGRMDPPKNCPGPVYRIMTQCWQHQPEDRPNFAIILERIEYCTQDPDVINTALPIEYGPLVEEEEKVPVRPKDPEGVPPLLVSQQAKREEERSPAAPPPLPTTSSGKAAKKPTAAEISVRVPRGPAVEGGHVNMAFSQSNPPSELHKVHGSRNKPTSLWNPTYGSWFTEKPTKKNNPIAKKEPHDRGNLGLEGSCTVPPNVATGRLPGASLLLEPSSLTANMKEVPLFRLRHFPCGNVNYGYQQQGLPLEAATAPGAGHYEDTILKSKNSMNQPGP
partner: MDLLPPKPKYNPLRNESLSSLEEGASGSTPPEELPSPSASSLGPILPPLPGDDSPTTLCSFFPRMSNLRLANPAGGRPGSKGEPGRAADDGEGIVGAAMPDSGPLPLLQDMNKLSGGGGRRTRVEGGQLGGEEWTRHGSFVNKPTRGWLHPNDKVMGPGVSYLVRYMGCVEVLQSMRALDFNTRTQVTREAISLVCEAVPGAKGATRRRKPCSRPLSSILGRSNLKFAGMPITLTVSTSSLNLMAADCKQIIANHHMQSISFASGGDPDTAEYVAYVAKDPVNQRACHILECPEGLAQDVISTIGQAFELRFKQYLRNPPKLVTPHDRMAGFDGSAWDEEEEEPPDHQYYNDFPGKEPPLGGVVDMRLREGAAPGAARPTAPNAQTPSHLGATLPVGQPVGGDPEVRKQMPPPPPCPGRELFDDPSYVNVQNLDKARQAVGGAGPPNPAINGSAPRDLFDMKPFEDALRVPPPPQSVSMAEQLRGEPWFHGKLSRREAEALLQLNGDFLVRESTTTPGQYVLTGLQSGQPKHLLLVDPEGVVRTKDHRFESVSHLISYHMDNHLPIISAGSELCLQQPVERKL
B2: ALK tyrosine kinase receptor (Homo sapiens), Q9UM73 (parent)
chain: B1 chain
partner: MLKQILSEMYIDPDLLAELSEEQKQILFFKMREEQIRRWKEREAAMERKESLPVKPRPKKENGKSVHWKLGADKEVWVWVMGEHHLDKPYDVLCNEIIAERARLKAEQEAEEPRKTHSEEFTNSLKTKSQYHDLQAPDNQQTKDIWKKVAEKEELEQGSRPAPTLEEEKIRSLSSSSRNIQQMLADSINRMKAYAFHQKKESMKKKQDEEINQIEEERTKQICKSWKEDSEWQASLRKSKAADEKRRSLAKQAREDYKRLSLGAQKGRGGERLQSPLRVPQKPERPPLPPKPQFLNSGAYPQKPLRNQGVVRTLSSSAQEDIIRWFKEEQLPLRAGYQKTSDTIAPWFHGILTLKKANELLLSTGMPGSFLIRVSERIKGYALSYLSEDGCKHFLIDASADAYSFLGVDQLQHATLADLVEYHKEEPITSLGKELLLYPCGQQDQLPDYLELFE
B3: ALK tyrosine kinase receptor (Homo sapiens), Q9UM73 (parent)
chain: B1 chain
partner: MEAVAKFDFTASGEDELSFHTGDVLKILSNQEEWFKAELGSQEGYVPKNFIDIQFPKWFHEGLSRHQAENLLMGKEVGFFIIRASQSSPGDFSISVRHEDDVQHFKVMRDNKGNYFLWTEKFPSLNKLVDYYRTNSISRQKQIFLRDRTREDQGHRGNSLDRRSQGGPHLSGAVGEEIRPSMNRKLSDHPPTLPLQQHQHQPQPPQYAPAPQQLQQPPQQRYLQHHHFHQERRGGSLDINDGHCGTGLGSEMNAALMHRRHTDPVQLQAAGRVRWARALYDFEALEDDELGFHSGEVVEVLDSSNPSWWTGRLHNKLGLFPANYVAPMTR
B4: ALK tyrosine kinase receptor (Homo sapiens), Q9UM73 (parent)
chain: B1 chain
partner: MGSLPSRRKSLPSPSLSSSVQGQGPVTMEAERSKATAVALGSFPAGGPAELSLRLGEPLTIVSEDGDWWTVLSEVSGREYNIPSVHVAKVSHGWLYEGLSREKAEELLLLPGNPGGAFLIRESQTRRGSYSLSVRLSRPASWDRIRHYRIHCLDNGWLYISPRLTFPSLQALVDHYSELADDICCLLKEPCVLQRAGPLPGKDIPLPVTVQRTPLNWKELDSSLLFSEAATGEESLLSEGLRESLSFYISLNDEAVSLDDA
B5: ALK tyrosine kinase receptor (Homo sapiens), Q9UM73 (parent)
chain: B1 chain
partner: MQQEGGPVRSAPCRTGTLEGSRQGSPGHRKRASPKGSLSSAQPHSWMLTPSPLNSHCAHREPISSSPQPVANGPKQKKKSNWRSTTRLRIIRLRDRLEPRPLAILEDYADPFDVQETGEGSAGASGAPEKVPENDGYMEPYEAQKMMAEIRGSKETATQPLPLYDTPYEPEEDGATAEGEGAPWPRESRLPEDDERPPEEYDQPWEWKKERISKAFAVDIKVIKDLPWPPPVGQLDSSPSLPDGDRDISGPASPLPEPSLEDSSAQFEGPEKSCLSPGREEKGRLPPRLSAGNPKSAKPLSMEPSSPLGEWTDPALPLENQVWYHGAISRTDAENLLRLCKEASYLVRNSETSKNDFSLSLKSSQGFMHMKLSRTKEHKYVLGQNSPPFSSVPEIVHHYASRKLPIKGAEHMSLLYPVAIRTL
B6: ALK tyrosine kinase receptor (Homo sapiens), Q9UM73 (parent)
chain: B1 chain
partner: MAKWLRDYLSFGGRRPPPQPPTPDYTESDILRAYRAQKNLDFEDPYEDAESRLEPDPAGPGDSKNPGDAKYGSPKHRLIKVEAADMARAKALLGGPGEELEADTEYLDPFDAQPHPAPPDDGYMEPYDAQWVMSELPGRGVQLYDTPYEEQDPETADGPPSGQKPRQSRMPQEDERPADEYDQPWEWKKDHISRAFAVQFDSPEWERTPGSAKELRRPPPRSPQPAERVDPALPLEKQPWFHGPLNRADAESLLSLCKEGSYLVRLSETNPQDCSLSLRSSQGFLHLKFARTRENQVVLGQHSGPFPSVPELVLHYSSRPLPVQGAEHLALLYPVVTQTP
B7: ALK tyrosine kinase receptor (Homo sapiens), Q9UM73 (parent)
chain: B1 chain
partner: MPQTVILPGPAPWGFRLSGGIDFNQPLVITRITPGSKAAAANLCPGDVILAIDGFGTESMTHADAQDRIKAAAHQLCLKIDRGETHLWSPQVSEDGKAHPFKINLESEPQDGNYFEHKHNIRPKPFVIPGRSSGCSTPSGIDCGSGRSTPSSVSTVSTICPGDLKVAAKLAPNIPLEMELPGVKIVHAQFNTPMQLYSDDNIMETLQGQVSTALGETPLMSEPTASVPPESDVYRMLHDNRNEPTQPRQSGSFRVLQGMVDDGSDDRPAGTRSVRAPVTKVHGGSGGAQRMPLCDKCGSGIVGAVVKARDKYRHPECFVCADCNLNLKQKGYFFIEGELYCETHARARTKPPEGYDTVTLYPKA

Variants of: B1
Conditions: with shc1_human SHC1, P29353

effect of a mutation on the interaction	Variant
increasing interaction strength	L1196M
increasing interaction strength	F1245C
decreasing interaction strength	I1250T

Variants of: B2
Conditions: with sh24a_human SH2D4A

effect of a mutation on the interaction	Variant
increasing interaction strength	F1245C
decreasing interaction strength	I1250T
increasing interaction strength	L1196M

Variants of: B3
Conditions: with grap2_human GRAP2, O75791

effect of a mutation on the interaction	Variant
increasing interaction strength	L1196M
increasing interaction strength	F1245C
decreasing interaction strength	I1250T

Variants of: B4
Conditions: with slap2_human SLA2, Q9H6Q3

effect of a mutation on the interaction	Variant
decreasing interaction strength	I1250T
increasing interaction strength	F1245C
increasing interaction strength	L1196M

Variants of: B5
Conditions: with shf_human SHF

effect of a mutation on the interaction	Variant
decreasing interaction strength	I1250T
increasing interaction strength	L1196M
increasing interaction strength	F1245C

Variants of: B6
Conditions: with shd_human SHD

effect of a mutation on the interaction	Variant
increasing interaction strength	L1196M
increasing interaction strength	F1245C
decreasing interaction strength	I1250T

Variants of: B7
Conditions: with pdli3_human PDLIM3, Q53GG5

effect of a mutation on the interaction	Variant
decreasing interaction strength	I1250T
increasing interaction strength	F1245C
increasing interaction strength	L1196M
